In patent publication CN114573710A:

Legend:
[1] = biological target: CD47 on lymphoma cell lines Raji, Daudi and Romas (UniProt Q08722); experiment: flow cytometry, Romas cells incubated with CD19-s47-CART supernatant, detected with anti-HA-APC
[2] = biological target: CD47 on lymphoma cell lines Raji, Daudi and Romas (UniProt Q08722); experiment: flow cytometry, Daudi cells incubated with CD19-s47-CART supernatant, detected with anti-HA-APC
[3] = biological target: CD47 on lymphoma cell lines Raji, Daudi and Romas (UniProt Q08722); experiment: flow cytometry, Raji cells incubated with CD19-s47-CART supernatant, detected with anti-HA-APC

Measured: 结合率

Sequence of UniProt Q08722 (Q08722 19-323 limits assumed): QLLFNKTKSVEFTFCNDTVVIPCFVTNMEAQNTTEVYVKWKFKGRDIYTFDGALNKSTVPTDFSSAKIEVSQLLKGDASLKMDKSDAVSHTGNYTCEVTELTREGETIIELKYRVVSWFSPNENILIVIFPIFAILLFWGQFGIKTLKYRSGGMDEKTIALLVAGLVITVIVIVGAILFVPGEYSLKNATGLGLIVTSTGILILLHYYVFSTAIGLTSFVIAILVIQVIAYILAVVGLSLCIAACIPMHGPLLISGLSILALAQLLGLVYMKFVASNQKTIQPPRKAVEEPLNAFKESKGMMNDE

B1: 外泌蛋白s47 (抗CD47单链抗体, CD47 ScFv, 末尾连接HA标签) (scFv)
scFv: DVVMTQSPLSLPVTPGEPASISCRSSQSIVYSNGNTYLGWYLQKPGQSPKLLIYKVSNRFSGVPDRFSGSGSGTDFTLKISRVEAEDVGVYHCFQGSHVPYTFGGGTKVEIKGGGGSGGGGSGGGGSQVQLVQSGAEVKKPGASVKVSCKASGYTFTNYNMHWVRQAPGQGLEWIGTIYPGNDDTSYNQKFKDKATLTADKSTSTAYMELSSLRSEDTAVYYCARGGYRAMDYWGQGTLVTVSSYPYDVPDYA
100 %: all assays above
